Experimental data: patent publication US20050049402A1 (Amgen, published 2005)

Key:
[1] = molecular target: T1, cynomolgus macaque TNFα (KinExA) (cynomolgus macaque, UniProt P79337 77-233, limits assumed); experiment: KinExA
T1 construct: also called monkey TNFα
Description: (§1) The kinetic measurements of the anti-TNFα antibodies were evaluated using KinExA® and BIACORE® technologies. The KinExA® method involves solution-based determination of formal affinity measurements at equilibrium. To measure the binding kinetics of each human anti-TNFα antibody, two experiments in replicates of three were performed. In both experiments a known concentration of antigen was titrated and a different antibody concentration was added to each antigen titration and allowed to reach binding equilibrium. […] The results were analyzed by dual curve analysis. […] In addition, to negate the possibility of avidity effects, Fab fragments were generated by papain cleavage and the kinetic analysis was repeated (see Table 24).
(§2) The KinExA method was also used to measure the Kd describing this binding affinity.

[2] = molecular target: T2, human TNFα (Tumor Necrosis Factor-alpha), soluble (human, UniProt P01375 77-233); experiment: BIACORE, average
T2 construct: Recombinant (R&D 210-TA/CF) in screens; biotinylated in the limited antigen assay; also called hTNFα; H-TNFα

[3] = molecular target: T1, cynomolgus macaque TNFα (KinExA); experiment: KinExA, TNFα as a monomer
Description: as §1, §2

[4] = molecular target: T2, human TNFα (Tumor Necrosis …); experiment: BIACORE, average N = 5
[5] = molecular target: T2, human TNFα (Tumor Necrosis …); experiment: cell-based or functional assay
[6] = molecular target: T2, human TNFα (Tumor Necrosis …); experiment: cell-based or functional assay; remark: listed apart in the source
[7] = molecular target: transmembrane mutant TNFα expressed on the surface of CHO cells (UniProt P01375 1-233); experiment: cell-based or functional assay
[8] = molecular target: T2, human TNFα (Tumor Necrosis …); experiment: cell-based or functional assay; remark: listed apart in the source
human TNFα R131Q mutant = human TNFα R131Q mutant (human, UniProt P01375 77-233); experiment: ELISA on chimeric/mutant TNFα
From the text: (§3) In order to define the binding site for different antibodies, a number of residues of hTNFα were mutated using site directed mutagenesis. A panel of antibodies was screened for binding by an ELISA assay. […] Histidine at position 73 was deleted, an example is illustrated in Table 19.

[9] = molecular target: T3, H/M BglI chimeric TNFα (human 1-36, murine 37-157) (human; mouse, UniProt P06804 81-235); experiment: ELISA on chimeric/mutant TNFα
T3 construct: Murine range is printed as 37-157 in human-aligned numbering; also called H/MBgl1; Hu/MBgl1
T3 chain: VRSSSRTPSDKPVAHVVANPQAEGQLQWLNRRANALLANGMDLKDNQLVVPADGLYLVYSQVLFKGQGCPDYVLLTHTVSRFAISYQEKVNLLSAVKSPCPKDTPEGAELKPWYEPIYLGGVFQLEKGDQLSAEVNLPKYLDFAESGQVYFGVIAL
From the text: as §3

[10] = molecular target: T4, H/M PvuII chimeric TNFα (human 1-125, murine 126-157) (human; mouse); experiment: ELISA on chimeric/mutant TNFα
T4 construct: also called Hu/M PVu11
T4 chain: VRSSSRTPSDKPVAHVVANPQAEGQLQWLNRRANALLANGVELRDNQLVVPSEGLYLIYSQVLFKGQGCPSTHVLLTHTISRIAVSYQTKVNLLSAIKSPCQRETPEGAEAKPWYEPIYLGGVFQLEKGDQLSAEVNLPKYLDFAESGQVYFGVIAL
From the text: as §3

[11] = molecular target: T5, H/M HincII chimeric TNFα (human 1-91, murine 92-157) (human; mouse); experiment: ELISA on chimeric/mutant TNFα
T5 construct: Murine range printed 92-157 (human-aligned); also called Hu/M Hin C l1
T5 chain: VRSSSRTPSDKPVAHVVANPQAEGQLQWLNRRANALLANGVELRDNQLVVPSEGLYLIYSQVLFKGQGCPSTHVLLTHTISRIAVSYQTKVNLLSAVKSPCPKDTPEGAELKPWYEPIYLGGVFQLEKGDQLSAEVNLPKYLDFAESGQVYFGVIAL
From the text: as §3

human TNFα R31Q mutant = human TNFα R31Q mutant (human, UniProt P01375 77-233); experiment: ELISA on chimeric/mutant TNFα
From the text: as §3

mouse TNFα = molecular target: T6, mouse TNFα (mouse, UniProt P06804 80-235); experiment: binding to chimeric TNF proteins
T6 construct: also called M TNFα; murine TNF
T6 sequence: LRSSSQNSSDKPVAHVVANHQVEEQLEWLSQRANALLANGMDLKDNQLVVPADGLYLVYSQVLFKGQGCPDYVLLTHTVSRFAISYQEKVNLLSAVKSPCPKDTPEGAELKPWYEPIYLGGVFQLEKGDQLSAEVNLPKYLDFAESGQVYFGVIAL

[12] = molecular target: T2, human TNFα (Tumor Necrosis …); experiment: KinExA, TNFα counted as one trimer
Description: as §1

[13] = molecular target: T2, human TNFα (Tumor Necrosis …); experiment: KinExA, TNFα counted as three monomers
Description: as §1

human GST-TNFα = molecular target: T7, human GST-TNFα (human, UniProt P01375 77-233); experiment: ELISA, plate coated with 0.5 µg/ml human GST-TNFα, HRP goat anti-human IgG detection
T7 construct: also called E. coli expressed soluble human TNF; not shown: GST fusion partner
Description: (§4) Anti-TNFα antibodies were also tested for their ability to bind to soluble recombinant TNFα. Human and monkey (cynomolgous macaque) TNFα were expressed in E. coli as fusion proteins with GST. Binding was assessed by ELISA. […] Bound antibody was detected using an HRP-conjugated goat anti-human IgG antibody.

[14] = molecular target: T8, monkey (cynomolgous macaque) GST-TNFα (cynomolgous macaque, UniProt P79337 77-233); experiment: ELISA, plate coated with 2 µg/ml monkey (cynomolgus macaque) GST-TNFα, HRP goat anti-human IgG detection
T8 construct: also called E. coli expressed soluble cynomolgous macaque monkey TNF; monkey TNFα; not shown: GST fusion partner
Description: as §4

[15] = molecular target: human TNFα R31Q, Q27E mutant (human, UniProt P01375 77-233); experiment: ELISA on chimeric/mutant TNFα
From the text: as §3

[16] = molecular target: T2, human TNFα (Tumor Necrosis …); experiment: cell-based or functional assay; remark: listed apart in the source
[17] = molecular target: T2, human TNFα (Tumor Necrosis …); experiment: KinExA, unknown antigen concentration method
Description: as §1

[18] = molecular target: T3, H/M BglI chimeric TNFα (human 1-36, …); experiment: ELISA on expressed TNFα constructs
[19] = molecular target: T4, H/M PvuII chimeric TNFα (human 1-125, …); experiment: ELISA on expressed TNFα constructs
[20] = molecular target: T5, H/M HincII chimeric TNFα (human 1-91, …); experiment: ELISA on expressed TNFα constructs
[21] = molecular target: T2, human TNFα (Tumor Necrosis …); experiment: KinExA, TNFα counted as one trimer; KinExA, one trimer (52.5 kDa); lower bound of the Kd fit
Description: as §1

[22] = molecular target: T2, human TNFα (Tumor Necrosis …); experiment: KinExA, TNFα counted as one trimer; KinExA, one trimer (52.5 kDa); upper bound of the Kd fit
Description: as §1

[23] = molecular target: T2, human TNFα (Tumor Necrosis …); experiment: KinExA, TNFα counted as three monomers; KinExA, three monomers (17.5 kDa); upper bound of the Kd fit
Description: as §1

[24] = molecular target: T2, human TNFα (Tumor Necrosis …); experiment: KinExA, TNFα counted as one trimer; KinExA in solution; TNFα site concentration as one trimer (52.5 kDa)
Description: as §1

[25] = molecular target: T2, human TNFα (Tumor Necrosis …); experiment: KinExA, TNFα counted as three monomers; KinExA in solution; TNFα site concentration as three monomers (17.5 kDa)
Description: as §1

Chain of transmembrane mutant TNFα expressed on the surface of CHO cells (P01375 whole entry, change not shown, form in doubt): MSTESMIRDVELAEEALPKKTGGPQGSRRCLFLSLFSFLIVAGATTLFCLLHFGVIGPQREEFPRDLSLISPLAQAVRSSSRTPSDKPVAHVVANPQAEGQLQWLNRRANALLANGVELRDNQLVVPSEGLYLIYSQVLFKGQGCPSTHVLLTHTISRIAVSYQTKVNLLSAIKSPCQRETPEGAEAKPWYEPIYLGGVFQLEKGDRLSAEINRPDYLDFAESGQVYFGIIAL
Chain of human TNFα R31Q mutant (P01375 77-233 R107Q): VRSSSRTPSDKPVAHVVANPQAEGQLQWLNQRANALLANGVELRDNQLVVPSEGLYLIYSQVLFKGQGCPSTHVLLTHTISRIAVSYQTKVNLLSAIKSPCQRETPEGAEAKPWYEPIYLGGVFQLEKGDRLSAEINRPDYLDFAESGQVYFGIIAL

Binder | IC50 1 hr Pre-incubation, TNF induced apoptosis in MCF-7 cells [5] | IC50 18 hr Pre-incubation, TNF induced apoptosis in MCF-7 cells [5] | Whole Blood IC50, TNFα-induced IL-8 production [6] | ADCC (%) [7] | CDC (%) [7] | In vivo Potency (IC50), ALT, hTNFα/D-GalN hepatic injury in mice [8] | In vivo Potency (IC50), human TNFα-induced IL-6 in mice [8] | binding result (human TNFα R131Q mutant) | binding result [9] | binding result [10] | binding result [11] | binding result (human TNFα R31Q mutant) | binding result (mouse TNFα) | Kd [12] | Kd [13] | EC50 (read off the curve) (human GST-TNFα) | binding result [15] | also measured
299v2 (antibody, human IgG1, V domains shown, XENOMAX derived, recombinant human IgG1 kappa; also called 299v2Ab; SC299V2) VH: QVQLVESGGGVVQPGRSLRLSCAASGFTFSSYDMHWVRQAPGKGLEWVAVIWSDGSIKYYADSVKGRFTISRDNSKNTLYLQMNSLRAEDTAVYYCAREVESAMGGFYYNGMDVWGQGTTVTVSS VL: DIQMTQSPSSLSASVGDRVTITCRASQGIRIDLGWYQQKPGKAPKRLIYAASTLQSGVPSRFSGSGSGTEFIFTISSLQPEDFASYYCLQHKSYPLTFGGGTKVEIK | 0.0186 nM | 0.0016 nM | 0.131 nM | 16% | 9% | 50 nM | 43 nM | binds | binds | binds | binds | no binding | no binding | 0.00107 nM | 0.0032 nM | ~4 ng/mL |  | fold lower affinity than for human TNFα [1]: ~200 fold; Kd [2]: 0.0057 nM; Kd [3]: 0.626 nM; koff [4]: 1.03e-05 s⁻¹; kon [4]: 2.16e+06 M⁻¹ s⁻¹; EC50 (read off the curve) [14]: ~4 ng/mL
263 (antibody, human IgG1, V domains shown, XENOMAX derived, recombinant human IgG1 kappa; also called SC263) VH: EVQLVESGGGLIQPGGSLRLSCAASGFTVSRNYMSWVRQAPGKGLEWVSVIYSGDRTYYADSVKGRFTISRDNSKNTLYLQMNSLRAEDTAVYYCARGEGGFDYWGQGTLVTVSS VL: EIVMTQSPATLSVSPGERATLSCRASQSVSSNLAWYQQKPGQAPRLLIHGASIRATGLPARFSGSGSGTEFTLTISSLQSEDFAVYYCQQYNYWWTFGQGTKVEIK | 0.0595 nM | 0.037 nM | 0.524 nM | 10% | 17% | 48 nM | 35 nM | binds |  |  |  | binds | no binding | 0.00373 nM | 0.0112 nM | ~3 ng/mL | binds | binding result [14]: no binding (tested: 100 ng/ml)
Rabbit R014 (AB-TNFα-R014) (antibody, rabbit IgG1, V domains shown, Fully rabbit antibody, rabbit IgG1 heavy and kappa constant regions; cloned from well 7A4; also called RO14; Rabbit 014) VH: QSLEESGGRLVTPGTPLTLTCTVSGIDLSSNTMGWFRRAPGKGLEWIGIIISSGTTYYASWVKGRFTISKTSTTVDLKITRPTTEDTATYFCARGWYEFNLWGPGTLVTVSS VL: DVVMTQTPASVEAAVGGTVTIKCQASENIDILLAWYQQKVGQPPKLLIYRASKLASGAPSRFSGSGSGTEFTLTISDLECGDAATYYCQSNVGSTARSSYGNAFGGGTEVVVK |  |  |  |  |  |  |  | binds | binds | binds | binds | binds |  |  |  |  | binds | Average IC50, TNF induced apoptosis on MCF-7 cells, 1 hour pre-incubation [16]: 0.0142 nM; Kd [17]: 0.000787 nM; Kd (M) High [17]: 2.47e-12 M; Kd (M) Low [17]: 1.56e-13 M
4.17 (hybridoma, IgG2) (antibody, V domains shown, Hybridoma derived human IgG2 kappa) VH: QVQLVESGGGVVQPGRSLRLSCTTSGFTFSNYGMHWVRQAPGKGLEWVAVIWYDGSIKYYVDSVKGRFTISRDNSKNTLYLQMNSLRAEDTAVYYCAREKDCGGDCYSHYGMDVWGQGTTVTVSS VL: DIQMTQSPSSLSASVGDRVTITCRASQGIRNDLGWYQQKPGKAPKRLIYAASSLQSGVPSRFSGSGSGTEFTLTISSLQPEDFATYYCLQHMSLPLTFGGGTKVEIK |  |  |  |  |  |  |  | binds |  |  |  |  |  |  |  |  |  | binding result [18]: binds; binding result [19]: binds; binding result [20]: binds
3.2 (hybridoma, IgG2) (antibody, V domains shown, Hybridoma derived human IgG2, lambda light chain (V1-13/JL3); also called 3.2 Ab; 3.2.1) VH: EVQLVQSGAEVKKPGESLKISCKTSEYSFTSYWIGWVRQMPGKGLEWMGIIYLGDSDTRYSPSFQGQVTISADKSISTAYLQWSSLKASDTAMYYCARSNWGLDYWGQGTLVTVSS VL: QSVLTQPPSVSGAPGQRVTISCTGSSSNIGAGYDVHWYQQFPGTAPKLLIQGNSNRPSGVPDRFSGSKSGTSASLAITGLQAEDEADYYCQSYDSSLSGSVFGGGTKLTVL |  |  |  |  |  |  |  |  |  |  |  |  |  |  |  |  |  | Kd (M) Low [13]: 7.3e-12 M; Kd (M) Low [21]: 2.43e-12 M; Kd (M) High [22]: 7.6e-12 M; Kd (M) High [23]: 2.3e-11 M; Kd [24]: 0.00477 nM; Kd [25]: 0.0143 nM
